Experimental data: patent US9809835B2, “Quantitative control of sialylation” (Roche Diagnostics Operations, Inc., priority 2013, dated 2017)

T1: Δ89 hST6Gal-I (Homo sapiens, UniProt P15907)
T1 construct: the construct of Epo-AP-Δ89 hST6Gal-I was secreted without the N-terminal amino acids AP; Erythropoietin signal peptide (Epo) (N, cleaved yes); AP spacer (two amino acids) (N, cleaved yes); made in house; host or cells: HEK293 (transient gene expression, secreted)
T1 sequence (P15907 90-406): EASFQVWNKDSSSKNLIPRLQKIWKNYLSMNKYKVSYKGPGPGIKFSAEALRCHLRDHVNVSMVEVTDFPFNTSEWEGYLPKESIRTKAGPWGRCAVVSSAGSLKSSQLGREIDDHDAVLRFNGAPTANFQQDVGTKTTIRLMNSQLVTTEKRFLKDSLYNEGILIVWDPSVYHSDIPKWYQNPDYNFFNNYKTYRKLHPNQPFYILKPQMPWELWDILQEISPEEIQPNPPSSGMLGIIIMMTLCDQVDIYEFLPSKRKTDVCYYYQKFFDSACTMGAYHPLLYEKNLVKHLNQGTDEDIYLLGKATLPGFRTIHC


Columns and labels:
Δ89 hST6Gal-I = target: T1, Δ89 hST6Gal-I; test: Inhibition of sialidase activity of Δ89 hST6Gal-I by CTP; format: biochemical
Experimental: The compound cytidine triphosphate (CTP) is a potent inhibitor of sialyltransferases (Scudder P R & Chantler E N B B A 660 (1981) 136-141). […] After 7 h of incubation the G2+2SA content was 94%. […] At different times samples were taken and the content of G2+0SA, G2+1SA and G2+2SA was determined by mass spectrometry. […] After 72 h of incubation 73% of G2+2SA were still present.

MAB<IL-1R> = test: Sialylation of humanized monoclonal antibody MAB<IL-1R> using Δ89 hST6Gal-I, glycan content by mass spectrometry; format: biochemical
Experimental: A highly galactosylated humanized monoclonal antibody IgG4 MAB<IL-1R>(WO 2005/023872) was used in sialylation experiments. […] The samples were incubated at 37° C. for a defined time. To stop the reaction the samples were frozen at −20° C. For mass analysis 100 μl denaturing buffer (6 M guanidinium chloride) and 30 μl TCEP (0.1 mM, diluted in denaturing buffer) were added to the samples and the samples were incubated at 37° C. for 1 h. The sample were buffered in electrospray-medium (20% ACN, 1% FA) using pre-equilibrated illustra™ Nap5-Columns (GE-Healthcare). Samples were analyzed by electrospray ionization mass spectrometry and the content of G2+0SA, G2+1SA and G2+2SA N-glycans was determined. A Micromass Q-Tof Ultima and a Synapt G2 HDMS device (Waters UK) were used, the software used was MassLynx V 4.1. To determine the kinetics of the sialylation the reaction was incubated up to 72 h.

Molecule | degradation of G2+2SA caused by the sialidase activity (Δ89 hST6Gal-I; CTP 0.67 mM, compared to inhibitor-free conditions) | G2+2SA still present (Δ89 hST6Gal-I; after 72 h of incubation, CTP added after 7 h, final concentration 0.67 mM) [%] | content of the bi-sialylated form G2+2SA (MAB<IL-1R>; after 2 hours of incubation, 37° C., 30 μg enzyme/300 μg MAB<IL-1R>, CMP-NANA donor) [%] | G2+2SA content (MAB<IL-1R>; after 7 h of incubation, before addition of CTP (Example 11)) [%] | G2+1SA content (MAB<IL-1R>; after an incubation of 48 h, 37° C., 30 μg enzyme/300 μg MAB<IL-1R>, CMP-NANA donor) [%] | dominant glycan species of MAB<IL-1R> (mass spectrum) (MAB<IL-1R>; t=8 h) | dominant glycan species of MAB<IL-1R> (mass spectrum) (MAB<IL-1R>; t=48 h)
Nc1ccn([C@@H]2O[C@H](COP(=O)(O)OP(=O)(O)OP(=O)(O)O)[C@@H](O)[C@H]2O)c(=O)n1 [CTP, cytidine triphosphate] | significantly reduced | 73 | – | – | – | – | –
Δ89 hST6Gal-I: N-terminally truncated human β-galactoside-α-2,6-sialyltransferase I, positions 1 to 89 of SEQ ID NO:1 deleted; amino acid sequence of SEQ ID NO:2 (protein, delta89 truncation variant of hST6Gal-I) EASFQVWNKDSSSKNLIPRLQKIWKNYLSMNKYKVSYKGPGPGIKFSAEALRCHLRDHVNVSMVEVTDFPFNTSEWEGYLPKESIRTKAGPWGRCAVVSSAGSLKSSQLGREIDDHDAVLRFNGAPTANFQQDVGTKTTIRLMNSQLVTTEKRFLKDSLYNEGILIVWDPSVYHSDIPKWYQNPDYNFFNNYKTYRKLHPNQPFYILKPQMPWELWDILQEISPEEIQPNPPSSGMLGIIIMMTLCDQVDIYEFLPSKRKTDVCYYYQKFFDSACTMGAYHPLLYEKNLVKHLNQGTDEDIYLLGKATLPGFRTIHC | – | – | 88 | 94 | 71 | G2+2SA is the dominant form | G2+1SA is the most abundant species
